Data taken from IntAct's records for PubMed 31515488.

B1: Transcription factor 12 (Homo sapiens), Q99081 (parent)
chain: MNPQQQRMAAIGTDKELSDLLDFSAMFSPPVNSGKTRPTTLGSSQFSGSGIDERGGTTSWGTSGQPSPSYDSSRGFTDSPHYSDHLNDSRLGAHEGLSPTPFMNSNLMGKTSERGSFSLYSRDTGLPGCQSSLLRQDLGLGSPAQLSSSGKPGTAYYSFSATSSRRRPLHDSAALDPLQAKKVRKVPPGLPSSVYAPSPNSDDFNRESPSYPSPKPPTSMFASTFFMQDGTHNSSDLWSSSNGMSQPGFGGILGTSTSHMSQSSSYGNLHSHDRLSYPPHSVSPTDINTSLPPMSSFHRGSTSSSPYVAASHTPPINGSDSILGTRGNAAGSSQTGDALGKALASIYSPDHTSSSFPSNPSTPVGSPSPLTGTSQWPRPGGQAPSSPSYENSLHSLQSRMEDRLDRLDDAIHVLRNHAVGPSTSLPAGHSDIHSLLGPSHNAPIGSLNSNYGGSSLVASSRSASMVGTHREDSVSLNGNHSVLSSTVTTSSTDLNHKTQENYRGGLQSQSGTVVTTEIKTENKEKDENLHEPPSSDDMKSDDESSQKDIKVSSRGRTSSTNEDEDLNPEQKIEREKERRMANNARERLRVRDINEAFKELGRMCQLHLKSEKPQTKLLILHQAVAVILSLEQQVRERNLNPKAACLKRREEEKVSAVSAEPPTTLPGTHPGLSETTNPMGHM
partner: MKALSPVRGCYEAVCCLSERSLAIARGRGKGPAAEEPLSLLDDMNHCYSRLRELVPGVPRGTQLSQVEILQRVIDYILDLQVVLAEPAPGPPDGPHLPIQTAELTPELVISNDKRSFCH
B2: TNF receptor-associated factor 2 (Homo sapiens), Q12933 (parent)
chain: MAAASVTPPGSLELLQPGFSKTLLGTKLEAKYLCSACRNVLRRPFQAQCGHRYCSFCLASILSSGPQNCAACVHEGIYEEGISILESSSAFPDNAARREVESLPAVCPSDGCTWKGTLKEYESCHEGRCPLMLTECPACKGLVRLGEKERHLEHECPERSLSCRHCRAPCCGADVKAHHEVCPKFPLTCDGCGKKKIPREKFQDHVKTCGKCRVPCRFHAIGCLETVEGEKQQEHEVQWLREHLAMLLSSVLEAKPLLGDQSHAGSELLQRCESLEKKTATFENIVCVLNREVERVAMTAEACSRQHRLDQDKIEALSSKVQQLERSIGLKDLAMADLEQKVLEMEASTYDGVFIWKISDFARKRQEAVAGRIPAIFSPAFYTSRYGYKMCLRIYLNGDGTGRGTHLSLFFVVMKGPNDALLRWPFNQKVTLMLLDQNNREHVIDAFRPDVTSSSFQRPVNDMNIASGCPLFCPVSKMEAKNSYVRDDAIFIKAIVDLTGL
partner: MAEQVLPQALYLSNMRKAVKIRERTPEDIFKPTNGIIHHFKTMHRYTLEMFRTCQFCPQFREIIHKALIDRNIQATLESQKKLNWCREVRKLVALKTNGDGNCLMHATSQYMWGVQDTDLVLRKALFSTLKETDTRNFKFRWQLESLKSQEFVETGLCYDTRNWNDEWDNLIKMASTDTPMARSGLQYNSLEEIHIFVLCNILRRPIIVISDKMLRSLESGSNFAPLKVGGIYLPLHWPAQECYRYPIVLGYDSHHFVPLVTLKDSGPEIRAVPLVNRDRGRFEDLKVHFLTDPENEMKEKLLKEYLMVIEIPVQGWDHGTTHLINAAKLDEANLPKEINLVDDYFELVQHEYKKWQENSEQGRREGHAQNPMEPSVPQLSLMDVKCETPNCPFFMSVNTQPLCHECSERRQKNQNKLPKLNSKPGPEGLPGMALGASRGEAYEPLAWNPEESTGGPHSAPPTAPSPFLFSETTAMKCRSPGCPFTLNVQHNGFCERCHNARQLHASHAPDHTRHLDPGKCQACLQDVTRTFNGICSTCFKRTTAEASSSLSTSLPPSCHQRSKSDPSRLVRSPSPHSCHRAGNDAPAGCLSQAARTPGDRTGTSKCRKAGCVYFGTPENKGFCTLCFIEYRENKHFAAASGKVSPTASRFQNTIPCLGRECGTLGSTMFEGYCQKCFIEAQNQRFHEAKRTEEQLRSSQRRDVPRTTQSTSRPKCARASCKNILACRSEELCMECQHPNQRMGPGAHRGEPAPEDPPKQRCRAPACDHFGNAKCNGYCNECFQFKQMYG
B3: Ropporin-1A (Homo sapiens), Q9HAT0 (parent)
chain: MAQTDKPTCIPPELPKMLKEFAKAAIRVQPQDLIQWAADYFEALSRGETPPVRERSERVALCNRAELTPELLKILHSQVAGRLIIRAEELAQMWKVVNLPTDLFNSVMNVGRFTEEIEWLKFLALACSALGVTITKTLKIVCEVLSCDHNGGSPRIPFSTFQFLYTYIAKVDGEISASHVSRMLNYMEQEVIGPDGIITVNDFTQNPRVQLE
partner: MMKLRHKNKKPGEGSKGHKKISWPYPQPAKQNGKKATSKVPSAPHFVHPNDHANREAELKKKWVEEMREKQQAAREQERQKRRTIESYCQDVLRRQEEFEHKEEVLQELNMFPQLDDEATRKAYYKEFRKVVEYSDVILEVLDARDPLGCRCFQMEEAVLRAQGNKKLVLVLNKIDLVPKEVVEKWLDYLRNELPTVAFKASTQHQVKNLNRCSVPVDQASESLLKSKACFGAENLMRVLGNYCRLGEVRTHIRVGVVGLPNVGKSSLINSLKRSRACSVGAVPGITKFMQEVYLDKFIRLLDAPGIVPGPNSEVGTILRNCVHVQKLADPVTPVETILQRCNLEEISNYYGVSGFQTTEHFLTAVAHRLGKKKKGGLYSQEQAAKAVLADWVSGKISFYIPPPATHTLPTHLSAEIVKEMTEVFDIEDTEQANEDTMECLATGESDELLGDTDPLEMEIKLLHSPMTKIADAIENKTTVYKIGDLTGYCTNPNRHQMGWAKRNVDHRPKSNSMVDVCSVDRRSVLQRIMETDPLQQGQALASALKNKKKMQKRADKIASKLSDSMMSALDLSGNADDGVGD
B4: Myogenin (Homo sapiens), P15173 (parent)
chain: MELYETSPYFYQEPRFYDGENYLPVHLQGFEPPGYERTELTLSPEAPGPLEDKGLGTPEHCPGQCLPWACKVCKRKSVSVDRRRAATLREKRRLKKVNEAFEALKRSTLLNPNQRLPKVEILRSAIQYIERLQALLSSLNQEERDLRYRGGGGPQPGVPSECSSHSASCSPEWGSALEFSANPGDHLLTADPTDAHNLHSLTSIVDSITVEDVSVAFPDETMPN

Variants of: B1
Conditions: with id3_human ID3, Q02535

effect of a mutation on the interaction	Variant
with no effect	N479S
with no effect	D565V
with no effect	A458V
with no effect	I11M

Variants of: B2
Conditions: with tnap3_human TNFAIP3, P21580

effect of a mutation on the interaction	Variant
with no effect	T134A
with no effect	A264T
with no effect	V206I

Variants of: B3
Conditions: with gnl3l_human GNL3L

effect of a mutation on the interaction	Variant
with no effect	C62W

Variants of: B4
Conditions: with if4e2_human EIF4E2, O60573
if4e2_human EIF4E2, O60573, sequence (O60573 whole entry): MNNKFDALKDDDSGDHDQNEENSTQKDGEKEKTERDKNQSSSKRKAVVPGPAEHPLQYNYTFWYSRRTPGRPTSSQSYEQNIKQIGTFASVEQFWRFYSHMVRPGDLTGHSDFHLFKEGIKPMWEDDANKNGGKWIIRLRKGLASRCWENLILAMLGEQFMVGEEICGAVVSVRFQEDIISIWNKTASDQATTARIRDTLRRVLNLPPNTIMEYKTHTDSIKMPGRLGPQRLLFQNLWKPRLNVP

effect of a mutation on the interaction	Variant
disrupting interaction strength	A181T

Variants of: B4
Conditions: with cc28a_human CCDC28A

effect of a mutation on the interaction	Variant
disrupting interaction strength	A181T

Variants of: B4
Conditions: with mlh1_human MLH1, P40692
mlh1_human MLH1, P40692, sequence (P40692 whole entry): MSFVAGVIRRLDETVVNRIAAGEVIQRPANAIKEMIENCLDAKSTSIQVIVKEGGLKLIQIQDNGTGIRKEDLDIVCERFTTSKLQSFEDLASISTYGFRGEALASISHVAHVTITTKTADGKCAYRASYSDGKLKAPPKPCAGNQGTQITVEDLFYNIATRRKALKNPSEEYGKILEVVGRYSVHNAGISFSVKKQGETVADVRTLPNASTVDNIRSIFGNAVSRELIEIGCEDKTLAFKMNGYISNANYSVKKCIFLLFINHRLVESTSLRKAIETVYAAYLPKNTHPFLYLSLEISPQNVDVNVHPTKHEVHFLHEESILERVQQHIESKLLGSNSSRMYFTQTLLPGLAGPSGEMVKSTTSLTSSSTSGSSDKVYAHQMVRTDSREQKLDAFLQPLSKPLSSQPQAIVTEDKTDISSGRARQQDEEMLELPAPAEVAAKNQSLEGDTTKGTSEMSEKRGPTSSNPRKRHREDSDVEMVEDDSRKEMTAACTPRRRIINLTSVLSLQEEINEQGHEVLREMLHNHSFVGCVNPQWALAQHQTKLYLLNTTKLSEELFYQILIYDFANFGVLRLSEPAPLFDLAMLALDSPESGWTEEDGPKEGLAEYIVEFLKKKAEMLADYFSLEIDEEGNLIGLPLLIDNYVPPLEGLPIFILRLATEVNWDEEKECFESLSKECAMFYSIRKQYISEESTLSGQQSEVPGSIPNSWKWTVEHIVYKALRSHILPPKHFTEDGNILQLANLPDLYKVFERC

effect of a mutation on the interaction	Variant
disrupting interaction strength	A181T

Variants of: B4
Conditions: with fril_human FTL

effect of a mutation on the interaction	Variant
with no effect	R147C
